The source of these data is paper PMC11633098.

The target of experiment [1] is human plasmin (human). Kind of experiment: ELISA; inhibition assay: Plg or Pln coated at 0.5 µg/well; 100 nM rSesY with 0 to 10 mM tranexamic acid or arginine; anti-His HRP detection; RT, 1 h. In general terms: In an ELISA, binding on a coated surface is turned into a signal by an enzyme label.
Experiment [2] addresses human plasminogen (human) (UniProt P00747). The experiment is described as above.
Experiment [3] addresses human plasmin (human).
Experiment [4] has as its target human plasmin (human). This is another data set of the same source.
For experiment [5], the target named is human plasmin (human). Kind of experiment: ELISA; solid-phase binding: Plg, Pln or BSA immobilised on 4HBX plates; increasing concentrations (1 nM to 4 µM) of recombinant protein; anti-His HRP detection; one-site specific binding fit; apparent KD.
Experiment [6] deals with human plasminogen (human) (UniProt P00747). The experiment is described as above.

Sequence of UniProt P00747 (P00747 20-810): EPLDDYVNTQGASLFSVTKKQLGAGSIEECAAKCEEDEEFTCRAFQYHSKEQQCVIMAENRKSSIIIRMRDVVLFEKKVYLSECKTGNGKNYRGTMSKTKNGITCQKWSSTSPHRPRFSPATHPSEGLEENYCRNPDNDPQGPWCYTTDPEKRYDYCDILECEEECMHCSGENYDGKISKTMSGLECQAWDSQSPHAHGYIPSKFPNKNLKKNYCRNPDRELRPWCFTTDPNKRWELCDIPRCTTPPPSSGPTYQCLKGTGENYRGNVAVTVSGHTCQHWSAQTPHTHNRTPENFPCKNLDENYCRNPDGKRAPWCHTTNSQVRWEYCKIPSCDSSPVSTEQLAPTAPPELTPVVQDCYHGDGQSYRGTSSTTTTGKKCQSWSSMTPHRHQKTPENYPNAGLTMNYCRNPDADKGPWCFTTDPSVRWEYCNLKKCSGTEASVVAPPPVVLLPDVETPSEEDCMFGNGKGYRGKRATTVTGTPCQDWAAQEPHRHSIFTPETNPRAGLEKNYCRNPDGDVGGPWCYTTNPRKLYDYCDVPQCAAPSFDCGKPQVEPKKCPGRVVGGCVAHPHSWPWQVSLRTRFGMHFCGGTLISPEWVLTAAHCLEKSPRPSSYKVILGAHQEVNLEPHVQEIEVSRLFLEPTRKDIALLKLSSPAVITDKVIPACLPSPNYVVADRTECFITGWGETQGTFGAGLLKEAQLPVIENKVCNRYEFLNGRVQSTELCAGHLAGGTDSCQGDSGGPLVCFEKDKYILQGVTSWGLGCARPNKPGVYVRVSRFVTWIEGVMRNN

As to “recombinant SesY_(32–341) (S. epidermidis surface protein Y) (domain or fragment)”, the percent reduction of binding by 2 mM tranexamic acid (with human plasmin (human) [1]; in experiment [2]) was greater than 85% each time. In the experiment with human plasmin (human) [3], this substance registered a fibrin gel remaining at 6 h and 12 h after digestion of pre-formed fibrin gel by Pln with 1, 2.5, 5 and 10 µM rSesY (38% to over 80%) greater than 80%. In addition, the fibrin gel remaining at 12 h after digestion of pre-formed fibrin gel by Pln with 5 µM rSesY (controls 10%–25%) with human plasmin (human) [3] came out at 80%. Further, the Vmax of Pln on S-2251 without and with rSesY (0 to 10 µM) in the experiment with human plasmin (human) [4] stood at 1.8 nM/min. Moreover, the Kd with human plasmin (human) [5] amounted to 16 nM; in experiment [6], 210 nM.

With “recombinant fibronectin-binding protein B N2N3 domain from S. aureus (from UniProt A0A0H2XKG3 37-940) (domain or fragment)”, in experiment [6], the Kd was 30 nM.
